# Key:
# Assay type in all cases: cell-based, Human
# [1] = test system: U87 glioma cells; experiment: Histone H2A.X phosphorylation immunoblot after TMZ; details: U87, TMZ 500 μM, control or SGEF depleted conditions
# Method: (§1) For immunoblotting, cells were lysed in 2×SDS sample buffer (0.25 M Tris-HCl, pH 6.8, 10% SDS, 25% glycerol) containing 10 μg/mL aprotinin, 10 μg/mL leupeptin, 20 mM NaF, 2 mM sodium orthovanadate, and 1 mM phenylmethylsulfonyl fluoride. Protein concentrations were determined using the BCA assay (Pierce) with bovine serum albumin as a standard. Thirty micrograms of total protein were loaded per lane and separated by SDS PAGE. After 4° C. transfer, the nitrocellulose (Invitrogen) was blocked with either 5% nonfat milk or 5% BSA in Tris-buffered saline, pH 8.0, containing 0.1% Tween 20 (TBST) prior to addition of primary antibodies and followed with peroxidase-conjugated anti-mouse IgG or anti-rabbit IgG. Protein was detected using SuperSignal West Dura Chemiluminescent Substrate (Thermo Scientific) with a UVP BioSpectrum 500 Imaging System (Upland, Calif.). Densitometry was calculated via Image J software.
# [2] = test system: T98G and U118 glioma cells; experiment: TWEAK stimulation: SGEF mRNA (qPCR) and protein (western blot) expression; details: TWEAK 100 ng/mL, increase apparent within two hours
# Method: Human astrocytoma cell lines U87, U118, and T98G (American Type Culture Collection), as well as primary glioblastoma xenograft cells (GBM & GBM TMZ-R lines) were maintained in DMEM (Gibco, USA) supplemented with 10% heat-inactivated fetal bovine serum (FBS; Gibco, USA) at 37° C. with 5% CO2. For all assays with TWEAK treatment, cells were cultured in reduced serum (0.5% fetal bovine serum) for 16 h before stimulation with recombinant TWEAK at 100 ng/mL in DMEM+0.1% bovine serum albumin for the indicated times.
# as §1, with “After 4° C. transfer, the nitrocellulose (Invitrogen) was blocked with either 5% nonfat milk or 5% BSA in Tris-buffered saline, pH 8.0, containing 0.1% Tween 20 (TBST) prior to addition of primary antibodies and followed with peroxidase-conjugated anti-mouse IgG or anti-rabbit IgG.” left out, “software. […]” for “software.”
# [3] = test system: SGEF promoter NF-κB p65 consensus sequence; experiment: Biotinylated electrophoretic mobility shift assay, NF-κB binding site of the SGEF promoter; details: T98G nuclear proteins 2 hours after TWEAK 100 ng/mL
# Method: T98G glioma cells were plated at a density of 3×10^6 in 100 mm^2 tissue culture dishes in normal growth medium. After 12 h, cells were cultured under reduced serum (0.5% FBS) for an additional 16 h before TWEAK (100 ng/mL) addition for 2 h. Isolation of cell nuclear protein was carried out using the NE-PER kit (Pierce) according to the protocol of the manufacturer. Protein-DNA complexes were detected using biotin end-labeled double-stranded DNA 23-mer probes containing the NF-κB binding sites within the SGEF promoter (NF-κB-SGEF wt target sequence: 5′-GTCTAGGAGGCAAATCCCAGAAA-3′ (SEQ ID NO:5); NF-κB-SGEF mt target sequence: 5′-GTCTAGGAGCCAGATCGCAGAAA-3′(SEQ ID NO:6)). The binding reactions were done using the LightShift kit (Pierce) according to the protocol of the manufacturer. Where indicated, 200-fold molar excess of unlabeled NF-κB-SGEF wt oligonucleotides or anti-p65 antibody was included. The reaction products were resolved by gel electrophoresis and detected by chemiluminescence according to the protocol of the manufacturer (Pierce).
Molecule,time to phosphorylation of H2A.X after TMZ treatment [1] [min],SGEF mRNA levels [2],SGEF protein levels [2],NF-κB binding to the SGEF promoter region [3]
"Cn1nnc2c(C(N)=O)ncn2c1=O [TMZ, temozolomide]",≤ 30,,,
"TWEAK: Human recombinant TWEAK, tumor necrosis factor-like weak inducer of apoptosis, cytokine ligand of Fn14 (protein) SAPKGRKTRARRAIAAHYEVHPRPGQDGAQAGVDGTVSGWEEARINSSSPLRYNRQIGEFIVTRAGLYYLYCQVHFDEGKAVYLKLDLLVDGVLALRCLEEFSATAASSLGPQLRLCQVSGLLALRPGSSLRIRTLPWAHLKAAPFLTYFGLFQVH",,increased,increased,NF-κB binds to the SGEF promoter region
